Test results reported in article PMC3144226, “Conformational Plasticity of proNGF” (PLoS ONE, 2011).

B1: mature murine Nerve Growth Factor (NGF) (natural protein, UniProt P01139 122-241, looked up)
chain: SSTHPVFHMGEFSVCDSVSVWVGDKTTATDIKGKEVTVLAEVNINNSVFRQYFFETKCRASNPVESGCRGIDSKHWNSYCTTTHTFVKALTTDEKQAAWRFIRIDTACVCVLSRKATRRG
notes: mature NGF, murine, the cut product of proNGF25 after the furin site RSKR (118-121 of UniProt P01139); Trp21, Trp76, Trp99. numbers count on: the mature protein; The purified NGF was made by trypsin cleavage, the NGF of the furin experiment by furin cleavage in the tube; also called mature NGF; NGF moiety; source: in the furin experiment released from proNGF25 by furin in the NMR tube

Assays:
[1] = target: recombinant murine proNGF (proNGF25, the short form of the precursor protein) (murine) (UniProt P01139); assay: NMR diffusion (PFG-LED); diffusion compared with model proteins (IscS dimer, DHFR, NusA KH domain); phosphate buffer pH 7, 25°C
[2] = target: the molecule itself; assay: 1D 1H NMR spectrum (linewidths); unlabelled NGF; phosphate buffer pH 7, 25°C

Row | Molecule | stoichiometry N [1] | binding result [2]
1 | recombinant murine proNGF (proNGF25, the short form of the precursor protein) (from UniProt P01139 19-241) (natural protein) | 2 | –
2 | B1 | – | binds
